B1: XGv282 monoclonal antibody (antibody, V domains shown)
VH: VQLVQSGAEVKKPGSSVKVSCKASGDTFSSYTFSWVRQAPGQGLEWMGRSIPIVGKAIYAQEFQGRVTISADRSTTTVYMELSSLRSDDTAVYYCARDQSGFDFFYYDHWGQGTLVAV
VL: QSVLTQPPSASGTPGQRVTISCSGSGSNIGSNTINWYQQLPGTAPKVLIYRNNERPSGVPDRFSGSKSGTSASLTISGLQSEDEAYYHCAAWDDSLNGPVFGGGTKLTVL
B2: XGv289 monoclonal antibody (antibody, V domains shown)
VH: QVQLVQSGAEVKKPGASLKVSCRASGYTFTSHFIHWVRQAPGQGLEWMGIINPSGGASYAQNFRDRVTMTTDPSTSTVYMELGSLRSEDTAVYYCARAEGSSWLGWFDPWGQGTLVTVSS
VL: SVLTQPPSASGTPGQRVTIPCSGSSSNIGNNYVYWYQQLPGTAPKLLVYGNNQRPSGVPDRFSVSKSGTSASLAISGLRSEDEADYYCAAWDDGLSGSGWVFGGGTKLTVL
B3: XGv347 monoclonal antibody (antibody, V domains shown)
VH: QMQLVQSGPEVKKPGTSVKVSCKASGFTFTDVSSLQWVRQARGQRLEWIGWTVVGTGNTNYAPRFQERVTITTDKSTSTAYMELSSLRSEDTAVYYCAAPFCSETSCSDGFDLWGQGTKVTVS
VL: EIVLTQSPGTLSLSPGDRATLSCRASQSVRISYLAWYQQKPGQAPRLLISGSSSRATGIPDRFSASGSGTDFTLTISRLEPEDFAVYYCQQYANSPWTFGQGTKVEV
B4: XGv265 monoclonal antibody (antibody, V domains shown)
VH: QITLKESGPTLVKPTQTLTLTCNFSGFSLNTYGVGVGWIRQPPGKALEWLALIYWDGDERYGPFFKNKVTIAKDTSKNQVVLTMTNMDPVDTATYYCARHLIPTIFDYWGQGTLVTVSS
VL: ALTQPASVSGSPGQSITISCTGTSSDVGGSNYVSWYQHHPDRAPKLLIYEVTNRPSGVSNRFSGSKSANTASLTISGLQAEDEADYYCSSYTTTSTHILFGGGTKLTV

For the experiment, the target named is SARS-CoV-2 wild-type receptor binding domain (RBD) (ACROBiosystems, Cat No. SPD-C52H3) (SARS-CoV-2 wild-type (MN908947), UniProt P0DTC2). The experiment in a line: BLI.
For B1, the binding result was “binds”. In the case of B2 it was “binds”. With B3, the binding result is recorded as “binds”. With B4 the entry was “binds”.
